# B1: Twister Ribozyme (parent)
# chain: AACACUGCCAAUGCCGGUCCCAAGCCCGGAUAAAAGUGGAGGGGGCGG
# Variants of: B1
# Test: self-cleavage, relative activity (ratio to wild type); higher = more cleavage; co-transcriptional
row,Variant,self-cleavage
1,AACACUGCCAAUGCCGGUCUGAAGCCCGGAUAAAAGUGGAGGGGGCGG,0.0649
2,AACACUGCCAAUGCCGGUCCAAAGCCCGGAUAAAAGUGGAGAGGGCGG,0.0769
3,AACACUGCCAAUGCCGGUCCAAAGCCCGGAUAAAAGUGGAGCGGGCGG,0.15
4,AACACUGCCAAUGCCGGUCCAAAGCCCGGAUAAAAGUGGAGUGGGCGG,0.0873
5,AACACUGCCAAUGCCGGUCCGAAGCCGGGAUAAAAGUGGAGGGGGCGG,0.138
6,AACACUGCCAAUGCCGGUCCGAAGCCUGGAUAAAAGUGGAGGGGGCGG,0.0651
7,AACACUGCCAAUGCCGGUCCAAGGCCCGGAUAAAAGUGGAGGGGGCGG,0.0801
8,AACACUGCCAAUGCCGGUCCAACGCCCGGAUAAAAGUGGAGGGGGCGG,0.109
9,AACACUGCCAAUGCCGGUCCAAAGCCCGGAUAAAAGUGGAGGGGGCGC,0.171
10,AACACUGCCAAUGCCGGUCCGAAGCCCGGAUAUAAGUGGAGGGGGCGG,0.0662
11,AACACUGCCAAUGCCGGUCUCAAGCCCGGAUAAAAGUGGAGGCGGCGG,0.125
12,AACACUGCCAAUGCCGGUCCAAAGCCCGGAUAAAAGUGGAGGGGGCAG,0.135
13,AACACUGCCAAUGCCGGUCUCAAGCCCGGAUAAAAGGGGAGGGGGCGG,0.702
14,AACACUGCCAAUGCCGGUCCAAAGCCCGGAUAAAAGUGGAGGAGGCGG,0.0637
15,AACACUGCCAAUGCCGGUCCAAAGCCCGGAUAAAAGUGGAGGUGGCGG,0.0849
16,AACACUGCCAAUGCCGGUCCAAAGCCCGGAUAAAAGUGGAGGCGGCGG,0.0785
17,AACACUGCCAAUGCCGGUCUCAAGCCCGGAUAAAAGUGGAGCGGGCGG,0.654
18,AACACUGCCAAUGCCGGUCUCAAGCCCGGAUAAGAGUGGAGGGGGCGG,0.373
19,AACACUGCCAAUGCCGGUCUCAAGCCCGGAUAAUAGUGGAGGGGGCGG,0.404
20,AACACUGCCAAUGCCGGUCCGAAGCCCGGAUAAAUGUGGAGGGGGCGG,0.0529
21,AACACUGCCAAUGCCGGUCCGAAGCCCGGAUAAAGGUGGAGGGGGCGG,0.0519
22,AACACUGCCAAUGCCGGUCCGAAGCCCGGAUAAACGUGGAGGGGGCGG,0.0454
23,AACACUGCCAAUGCCGGUCCGAAACCCGGAUAAAAGUGGAGGGGGCGG,0.0681
24,AACACUGCCAAUGCCGGUCCAAAGCCCGAAUAAAAGUGGAGGGGGCGG,0.132
25,AACACUGCCAAUGCCGGUCCAAAGCCCGCAUAAAAGUGGAGGGGGCGG,0.0813
26,AACACUGCCAAUGCCGGUCCGAAGCCCGGAUAAAAGUGGUGGGGGCGG,0.129
27,AACACUGCCAAUGCCGGUCCAAAUCCCGGAUAAAAGUGGAGGGGGCGG,0.0879

row,Variant,self-cleavage
1,AACACUGCCAAUGCCGGUCCAGAGCCCGGAUAAAAGUGGAGGGGGCGG,0.101
2,AACACUGCCAAUGCCGGUCCACAGCCCGGAUAAAAGUGGAGGGGGCGG,0.101
3,AACACUGCCAAUGCCGGUCUCCAGCCCGGAUAAAAGUGGAGGGGGCGG,1.01
4,AACACUGCCAAUGCCGGUCUCAAGCCCGGAUAAAGGUGGAGGGGGCGG,0.664
5,AACACUGCCAAUGCCGGUCCGAAGCCCGGAUAACAGUGGAGGGGGCGG,0.0532
6,AACACUGCCAAUGCCGGUCUCACGCCCGGAUAAAAGUGGAGGGGGCGG,0.0767
7,AACACUGCCAAUGCCGGUCUCAGGCCCGGAUAAAAGUGGAGGGGGCGG,0.121
8,AACACUGCCAAUGCCGGUCUCAAGCCCGGAUAAAAGUUGAGGGGGCGG,0.742
9,AACACUGCCAAUGCCGGUCCAAAGCCCGGAUAAUAGUGGAGGGGGCGG,0.102
10,AACACUGCCAAUGCCGGUCCAAAGCCCGGAUAAAAGUGGAUGGGGCGG,0.678
11,AACACUGCCAAUGCCGGUCCAAAGCCCGGAUAAAAGUGGACGGGGCGG,0.457
12,AACACUGCCAAUGCCGGUCCAAAGCCCGGAUAAAAGUUGAGGGGGCGG,0.0847
13,AACACUGCCAAUGCCGGUCCAAAGCCCGGAUAAAAGUAGAGGGGGCGG,0.109
14,AACACUGCCAAUGCCGGUCCAAAGCGCGGAUAAAAGUGGAGGGGGCGG,0.0786
15,AACACUGCCAAUGCCGGUCCAAAGCCCGGAUAAAAGUGGAGGGAGCGG,0.113
16,AACACUGCCAAUGCCGGUCCAAAGCCCGGAUAAAAGUGGAGGGUGCGG,0.108
17,AACACUGCCAAUGCCGGUCUCAACCCCGGAUAAAAGUGGAGGGGGCGG,0.0962
18,AACACUGCCAAUGCCGGUCUCAAUCCCGGAUAAAAGUGGAGGGGGCGG,0.0768
19,AACACUGCCAAUGCCGGUCUCAAGCACGGAUAAAAGUGGAGGGGGCGG,0.138
20,AACACUGCCAAUGCCGGUCUCAAGCUCGGAUAAAAGUGGAGGGGGCGG,0.128
21,AACACUGCCAAUGCCGGUCUCAAGCCCGGAUAAAAUUGGAGGGGGCGG,0.0929
22,AACACUGCCAAUGCCGGUCUCAAGCCCGGAUAAAACUGGAGGGGGCGG,0.135
23,AACACUGCCAAUGCCGGUCCAAAGCCCGGAUAAAAAUGGAGGGGGCGG,0.0703
24,AACACUGCCAAUGCCGGUCCAAAGCCCGGAUAAAAGUGGAGGGGUCGG,0.121
25,AACACUGCCAAUGCCGGUCCAAAGCCCGGAUAAAAGUGGAGGGGCCGG,0.109
26,AACACUGCCAAUGCCGGUCCAAAGCCCGGAUAAAAGUGGAGGGGACGG,0.114
27,AACACUGCCAAUGCCGGUCCAAAGCCCGGAUAAAUGUGGAGGGGGCGG,0.104
